Article PMC9440430, “An intrinsically disordered transcription activation domain increases the DNA binding affinity and reduces the specificity of NFκB p50/RelA”
Several values for one entry are separate records, joined by “and”; a condition that tells them apart may be missing. Identical values can stand only once.

B1: NFKBIA tandem dsDNA (FA) (dsDNA)
DNA 1: CTTGGAAATTCCCCGAGCCTGACCCCGCCCCAGAGAAATCCCCAG
DNA 2: CTGGGGATTTCTCTGGGGCGGGGTCAGGCTCGGGGAATTTCCAAG
B2: NFKBIA tandem 59 bp (dsDNA)
DNA 1: CTGACTGGCTTGGAAATTCCCCGAGCCTGACCCCGCCCCAGAGAAATCCCCAGCCAGCG
DNA 2: CGCTGGCTGGGGATTTCTCTGGGGCGGGGTCAGGCTCGGGGAATTTCCAAGCCAGTCAG
B3: HIV LTR tandem 33 bp (dsDNA)
DNA 1: AAGGGACTTTCCGCTGGGGACTTTCCAGGGAGG
DNA 2: CCTCCCTGGAAAGTCCCCAGCGGAAAGTCCCTT
B4: HIV LTR tandem dsDNA (FA) (dsDNA)
DNA 1: CAAGGGACTTTCCGCTGGGGACTTTCCAGG
DNA 2: CCTGGAAAGTCCCCAGCGGAAAGTCCCTTG

Columns and labels:
[1] = biological target: T1, p50/RelA-FL: p50 subunit (39-350);RelA-FL (RHD + TAD) (murine;murine, UniProt P25799;Q04207 39-350;19-549, |); test: fluorescence anisotropy; SEC buffer 25 mM Tris pH 7.5, 150 mM NaCl, 0.5 mM EDTA, 1 mM DTT (FA buffer not stated explicitly; 5 nM DNA, RT incubation, read at 25 C); EMSA: SEC buffer 1:1; conditions: protein: recombinant;recombinant, tags: N-terminal His6;none, copies: 1;1
T1 sequence (P25799 39-350, chain 1 of 2): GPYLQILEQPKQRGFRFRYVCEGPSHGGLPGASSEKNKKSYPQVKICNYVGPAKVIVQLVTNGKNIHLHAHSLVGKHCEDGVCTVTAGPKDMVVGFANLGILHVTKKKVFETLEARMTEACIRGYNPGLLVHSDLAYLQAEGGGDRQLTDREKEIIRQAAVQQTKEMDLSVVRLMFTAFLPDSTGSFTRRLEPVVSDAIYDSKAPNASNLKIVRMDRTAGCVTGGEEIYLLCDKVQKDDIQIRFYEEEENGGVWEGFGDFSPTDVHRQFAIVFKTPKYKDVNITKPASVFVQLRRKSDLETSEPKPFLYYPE
T1 sequence (Q04207 19-549, chain 2 of 2): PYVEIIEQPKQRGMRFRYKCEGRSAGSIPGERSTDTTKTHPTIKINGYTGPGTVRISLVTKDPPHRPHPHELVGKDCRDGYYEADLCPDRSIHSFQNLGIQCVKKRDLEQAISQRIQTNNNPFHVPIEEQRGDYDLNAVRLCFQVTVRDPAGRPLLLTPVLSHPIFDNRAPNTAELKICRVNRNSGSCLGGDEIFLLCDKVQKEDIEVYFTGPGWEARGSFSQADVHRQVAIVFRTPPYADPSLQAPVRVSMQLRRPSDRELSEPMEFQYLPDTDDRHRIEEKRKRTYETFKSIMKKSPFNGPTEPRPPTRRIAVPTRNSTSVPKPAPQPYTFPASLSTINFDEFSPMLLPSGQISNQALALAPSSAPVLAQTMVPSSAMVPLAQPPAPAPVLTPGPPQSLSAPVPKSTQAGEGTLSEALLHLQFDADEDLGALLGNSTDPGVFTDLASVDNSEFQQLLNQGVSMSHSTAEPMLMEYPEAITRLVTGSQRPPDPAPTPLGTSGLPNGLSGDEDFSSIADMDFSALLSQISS

[2] = biological target: T2, p50/RelA-FL: p50 subunit (39-350);RelA-RHD (no TAD) (murine;murine, UniProt P25799;Q04207 39-350;19-321, |); test: as above; conditions: protein: recombinant;recombinant, tags: N-terminal His6;none, copies: 1;1
T2 sequence (P25799 39-350, chain 1 of 2): as the sequence (P25799 39-350, chain 1 of 2) above
T2 sequence (Q04207 19-321, chain 2 of 2): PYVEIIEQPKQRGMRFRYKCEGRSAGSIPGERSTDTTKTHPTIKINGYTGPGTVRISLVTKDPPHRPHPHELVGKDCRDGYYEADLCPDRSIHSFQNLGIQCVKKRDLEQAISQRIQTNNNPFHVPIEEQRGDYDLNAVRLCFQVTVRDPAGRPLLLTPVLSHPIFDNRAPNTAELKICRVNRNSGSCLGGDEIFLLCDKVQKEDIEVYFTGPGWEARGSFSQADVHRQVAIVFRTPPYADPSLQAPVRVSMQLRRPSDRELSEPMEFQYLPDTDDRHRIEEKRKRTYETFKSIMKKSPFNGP

[3] = biological target: T1, p50/RelA-FL: p50 subunit …; test: EMSA; SEC buffer 25 mM Tris pH 7.5, 150 mM NaCl, 0.5 mM EDTA, 1 mM DTT (FA buffer not stated explicitly; 5 nM DNA, RT incubation, read at 25 C); EMSA: SEC buffer 1:1; conditions: protein: recombinant;recombinant; tags: N-terminal His6;none; copies: 1;1
[4] = biological target: T2, p50/RelA-FL: p50 subunit …; test: as above; conditions: protein: recombinant;recombinant; tags: N-terminal His6;none; copies: 1;1
[5] = label: 5' fluorescein (FITC), hairpin
[6] = label: 5' fluorescein on forward or reverse strand

Binder | Kd [1, 5] [nM] | Kd [2, 5] [nM] | Kd [1, 6] | Kd [2, 6] | binding result [3] | binding result [4]
GGGAAAGTACTCCCCCAGTACTTTCCC (structured_DNA, 5' 5AmMC6 amino linker) [Urokinase (UK) hairpin] | 2.2 ± 0.6 | 6.3 ± 1.5 |  |  |  | 
B1 |  |  | 1.5 nM and 5.1 nM | 1.7 nM and 10 nM |  | 
B2 |  |  |  |  | binds | binds
B3 |  |  |  |  | binds | binds
GTAGACGTGCTCCCCCAGCACGTCTAC (structured_DNA, 5' 5AmMC6 amino linker) [Random hairpin] | 130 ± 40 | 1500 ± 100 |  |  |  | 
B4 |  |  | 1.3 ± 0.4 nM | 1.7 ± 0.4 nM |  | 
